Measurements: publication PMC10501185

Target: Lymphocytic choriomeningitis virus RING finger Z matrix protein (Lymphocytic choriomeningitis virus (LCMV)) (UniProt P18541)
Assay: cryo-EM structure

Chain of UniProt P18541 (P18541 whole entry): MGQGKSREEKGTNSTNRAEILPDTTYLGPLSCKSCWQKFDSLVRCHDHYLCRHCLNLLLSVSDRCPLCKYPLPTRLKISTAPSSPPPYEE

## Lymphocytic choriomeningitis virus large polymerase (L), P14240 1-2210
  stoichiometry N: 1
